B1: SHP2/SH2 (recombinant N-terminal SHP2 fragment containing two SH2 domains, analyte of the SPR) (domain or fragment)
chain: MTSRRWFHPNITGVEAENLLLTRGVDGSFLARPSKSNPGDFTLSVRRNGAVTHIKIQNTGDYYDLYGGEKFATLAELVQYYMEHHGQLKEKNGDVIELKYPLNCADPTSERWFHGHLSGKEAEKLLTEKGKHGSFLVRESQSHPGDFVLSVRTGDDKGESNDGKSKVTHVMIRCQELKYDVGGGERFDSLTDLVEHYKKNPMVETLGTVLQLKQPLNTTR
B2: full-length SHP2 (recombinant) (enzyme)
chain: MTSRRWFHPNITGVEAENLLLTRGVDGSFLARPSKSNPGDFTLSVRRNGAVTHIKIQNTGDYYDLYGGEKFATLAELVQYYMEHHGQLKEKNGDVIELKYPLNCADPTSERWFHGHLSGKEAEKLLTEKGKHGSFLVRESQSHPGDFVLSVRTGDDKGESNDGKSKVTHVMIRCQELKYDVGGGERFDSLTDLVEHYKKNPMVETLGTVLQLKQPLNTTRINAAEIESRVRELSKLAETTDKVKQGFWEEFETLQQQECKLLYSRKEGQRQENKNKNRYKNILPFDHTRVVLHDGDPNEPVSDYINANIIMPEFETKCNNSKPKKSYIATQGCLQNTVNDFWRMVFQENSRVIVMTTKEVERGKSKCVKYWPDEYALKEYGVMRVRNVKESAAHDYTLRELKLSKVGQGNTERTVWQYHFRTWPDHGVPSDPGGVLDFLEEVHHKQESIMDAGPVVVHCSAGIGRTGTFIVIDILIDIIREKGVDCDIDVPKTIQMVRSQRSGMVQTEAQYRFIYMAVQHYIETLQRRIEEEQKSKRKGHEYTNIKYSLADQTSGDQSPLPPCTPTPPCAEMREDSARVYENVGLMQQQKSFR

Tests used:
Experiment in all cases: SPR; Biacore X100; CagA immobilised on CM5 chip by amine coupling, SHP2 or SHP2/SH2 as analyte; KD from Scatchard plots; three independent measurements
[1] = target: pY-CagA(C8)-His (tyrosine-phosphorylated Western CagA with eight EPIYA-C segments) (Helicobacter pylori)
[2] = target: pY-CagA(C3)-His (tyrosine-phosphorylated Western CagA with three EPIYA-C segments) (Helicobacter pylori)
[3] = target: pY-CagA(C2)-His (tyrosine-phosphorylated Western CagA with two EPIYA-C segments) (Helicobacter pylori)
[4] = target: pY-CagA(C5)-His (tyrosine-phosphorylated Western CagA with five EPIYA-C segments) (Helicobacter pylori)
[5] = target: pY-CagA(C1)-His (tyrosine-phosphorylated Western CagA with one EPIYA-C segment) (Helicobacter pylori)

| Binder | Kd [1] | Kd [2] | Kd [3] | Kd [4] | Kd [5] |
| --- | --- | --- | --- | --- | --- |
| B1 | 40.1 nM | 123 nM | 208 nM | 77.8 nM | 24100 nM |
| B2 | – | – | 369 nM | – | – |
